For this assay, the target named is T1, recombinant wild type SEB with N-terminal His6-tag (S. aureus COL, UniProt P01552 28-266).
T1 sequence: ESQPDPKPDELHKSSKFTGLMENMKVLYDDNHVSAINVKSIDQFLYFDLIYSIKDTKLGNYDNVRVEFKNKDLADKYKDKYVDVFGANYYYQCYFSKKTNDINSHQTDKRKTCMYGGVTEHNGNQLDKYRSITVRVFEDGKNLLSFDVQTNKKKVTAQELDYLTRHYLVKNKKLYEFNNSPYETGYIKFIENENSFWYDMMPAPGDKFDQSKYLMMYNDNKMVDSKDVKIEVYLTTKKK
The assay is described as follows: western blot of SEB bound to transfected cells. The settings on record: both partners purified. In general terms: Immunoblotting shows a protein as a band on a membrane.

Where no end group is shown, it is not given here. [ ]: non-standard residue; d: D form.

B1: p2TA (SPMLVAYD; CD28 8-15), form for biological assays (peptide)
peptide: ASPMLVAYDA
modifications: D-Ala at both termini
notes: source: synthetic peptide
For the molecule B1, the binding result is listed as “binds”.

B2: p1TA (HVKGKHLCP; CD28 116-124), form for biological assays (peptide)
peptide: [dA]HVKGKHLCP[dA]
notes: source: synthetic peptide
Consider B2, for which the binding result is recorded as “binds”.

The values above are taken from PMC3172200 (PLoS Biology, 2011).
